Paper PMC8104870

Target: T1, bacteriophage phi29 DNA packaging ATPase gp16 (bacteriophage phi29), P11014
T1 chain: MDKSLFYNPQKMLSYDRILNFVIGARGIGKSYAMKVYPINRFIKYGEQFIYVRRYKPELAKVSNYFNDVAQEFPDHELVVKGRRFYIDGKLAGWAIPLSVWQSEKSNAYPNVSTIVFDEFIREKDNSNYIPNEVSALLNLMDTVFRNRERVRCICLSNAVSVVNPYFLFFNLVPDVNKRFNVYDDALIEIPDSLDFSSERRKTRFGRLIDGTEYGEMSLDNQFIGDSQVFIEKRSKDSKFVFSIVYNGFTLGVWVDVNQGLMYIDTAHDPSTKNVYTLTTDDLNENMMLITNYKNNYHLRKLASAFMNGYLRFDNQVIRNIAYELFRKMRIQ
Test: cryo-EM structure
Conditions: remark: other sources report otherwise

B1: bacteriophage phi29 DNA packaging ATPase gp16, P11014 1-332 (enzyme)
chain: MDKSLFYNPQKMLSYDRILNFVIGARGIGKSYAMKVYPINRFIKYGEQFIYVRRYKPELAKVSNYFNDVAQEFPDHELVVKGRRFYIDGKLAGWAIPLSVWQSEKSNAYPNVSTIVFDEFIREKDNSNYIPNEVSALLNLMDTVFRNRERVRCICLSNAVSVVNPYFLFFNLVPDVNKRFNVYDDALIEIPDSLDFSSERRKTRFGRLIDGTEYGEMSLDNQFIGDSQVFIEKRSKDSKFVFSIVYNGFTLGVWVDVNQGLMYIDTAHDPSTKNVYTLTTDDLNENMMLITNYKNNYHLRKLASAFMNGYLRFDNQVIRNIAYELFRKMRIQ
- stoichiometry N: 5
